For this assay, the target named is Rum pol (RumA′2B), His-tagged on RumB (integrative conjugative element R391).

“S. aureus RecA (from UniProt A5ISG9 1-347) (natural protein)” gave a primer extension (% PE) by Rum Mut-Sa transactivated with Sa RecA* of 4 % PE.

The values are drawn from paper PMC9262582.
